B1: Cdk4 of the yeast complex with T4 lysozyme-tagged Cdc37 (natural protein, human, UniProt P11802 1-303, looked up)
chain: MATSRYEPVAEIGVGAYGTVYKARDPHSGHFVALKSVRVPNGGGGGGGLPISTVREVALLRRLEAFEHPNVVRLMDVCATSRTDREIKVTLVFEHVDQDLRTYLDKAPPPGLPAETIKDLMRQFLRGLDFLHANCIVHRDLKPENILVTSGGTVKLADFGLARIYSYQMALTPVVVTLWYRAPEVLLQSTYATPVDMWSVGCIFAEMFRRKPLFCGNSEADQLGKIFDLIGLPPEDDWPRDVSLPRGAFPPRGPRPVQSVVPEMEESGAQLLLEMLTFNPHKRISAFRALQHSYLHKDEGNPE
B2: Cdk4 tagged at its C terminus with T4 lysozyme (natural protein, human, UniProt P11802 1-303, looked up)
chain: MATSRYEPVAEIGVGAYGTVYKARDPHSGHFVALKSVRVPNGGGGGGGLPISTVREVALLRRLEAFEHPNVVRLMDVCATSRTDREIKVTLVFEHVDQDLRTYLDKAPPPGLPAETIKDLMRQFLRGLDFLHANCIVHRDLKPENILVTSGGTVKLADFGLARIYSYQMALTPVVVTLWYRAPEVLLQSTYATPVDMWSVGCIFAEMFRRKPLFCGNSEADQLGKIFDLIGLPPEDDWPRDVSLPRGAFPPRGPRPVQSVVPEMEESGAQLLLEMLTFNPHKRISAFRALQHSYLHKDEGNPE

How the values were obtained:
[1] = molecular target: T1, Cdc37 tagged at its N terminus with T4 lysozyme (human, UniProt Q16543 1-378); experiment: cryo-EM structure
T1 sequence (looked up): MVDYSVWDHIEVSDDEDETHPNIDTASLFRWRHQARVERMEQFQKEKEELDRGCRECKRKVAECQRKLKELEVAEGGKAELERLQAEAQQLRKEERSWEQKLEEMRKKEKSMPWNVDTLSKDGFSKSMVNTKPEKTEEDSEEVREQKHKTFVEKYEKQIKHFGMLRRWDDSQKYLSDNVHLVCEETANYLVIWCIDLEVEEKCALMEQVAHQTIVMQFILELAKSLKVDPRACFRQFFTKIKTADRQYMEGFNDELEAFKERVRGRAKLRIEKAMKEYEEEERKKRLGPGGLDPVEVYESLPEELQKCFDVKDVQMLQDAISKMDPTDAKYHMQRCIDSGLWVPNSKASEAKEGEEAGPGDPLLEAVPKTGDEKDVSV

[2] = molecular target: T2, Cdc37 of the yeast complex with T4 lysozyme-tagged Cdk4 (human, UniProt Q16543 1-378); experiment: cryo-EM structure
T2 sequence (looked up): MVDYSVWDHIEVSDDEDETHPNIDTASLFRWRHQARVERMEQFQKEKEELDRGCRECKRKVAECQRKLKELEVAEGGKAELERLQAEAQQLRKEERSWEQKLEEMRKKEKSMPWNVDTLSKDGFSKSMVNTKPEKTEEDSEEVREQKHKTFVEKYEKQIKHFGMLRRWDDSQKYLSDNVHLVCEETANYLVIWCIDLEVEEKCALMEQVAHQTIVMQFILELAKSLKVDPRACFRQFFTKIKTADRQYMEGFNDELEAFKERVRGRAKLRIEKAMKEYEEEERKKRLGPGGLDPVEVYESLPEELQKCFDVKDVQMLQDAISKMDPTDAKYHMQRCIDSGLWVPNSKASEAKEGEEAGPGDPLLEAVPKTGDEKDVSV

Row | Binder | binding result [1] | binding result [2]
1 | B1 | binds | 
2 | B2 |  | binds

Reference: paper PMC5373496 (Science (New York, N.Y.), 2016)
